According to patent US12134610B2, “Somatostatin subtype-2 receptor (SST2R) targeted therapeutics and uses thereof” (priority 2022, dated 2024):
Like-named read-outs stand apart in the source and are kept apart here.

Experiments:
[1] = biological target: T1, human somatostatin receptor subtype 2 (Homo sapiens, UniProt P30874); assay: Functional cAMP assay for SSTR2 agonists (HTRF) in CHO-K1 cells; assay type: cell-based; details: CHO-K1 cells stably expressing human SST2, 20 min; read-out: hSST2 cAMP Avg EC50
T1 construct: expressed in transfected cells
T1 sequence (P30874 whole entry): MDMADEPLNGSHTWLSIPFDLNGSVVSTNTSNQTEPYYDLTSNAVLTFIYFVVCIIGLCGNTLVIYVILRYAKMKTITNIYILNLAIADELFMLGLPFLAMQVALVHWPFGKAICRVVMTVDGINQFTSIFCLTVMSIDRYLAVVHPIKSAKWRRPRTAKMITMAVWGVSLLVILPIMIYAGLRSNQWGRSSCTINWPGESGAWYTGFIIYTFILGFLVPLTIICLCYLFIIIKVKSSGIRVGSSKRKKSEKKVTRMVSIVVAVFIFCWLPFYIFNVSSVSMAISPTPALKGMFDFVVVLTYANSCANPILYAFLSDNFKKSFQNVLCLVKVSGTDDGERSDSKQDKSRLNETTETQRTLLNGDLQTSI
Outline: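 CHO-K1 cells stably expressing receptor, plated 4 days before assay, treated 20 min at 37° C. with compound (typically 0-10,000 nM final) plus IBMX and 1.6 μM NKH477 to raise cAMP. HTRF read, 665/620 nm ratio; cAMP from standard curve, EC50 fitted.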

SST2 = biological target: T2, SST2 (Homo sapiens, UniProt P30874); assay: PathHunter CHO-K1 SST2 internalization assay; assay type: cell-based; details: PathHunter CHO-K1 SST2, 90 min; read-out: Internalization EC50
T2 construct: host or cells: PathHunter CHO-K1 SST2 cells
T2 sequence (P30874 whole entry): as above
Outline: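 PathHunter CHO-K1 SST2 cells, seeded and grown 48 h, were exposed to 11-point 1:3 dilutions of SMDC (top final 10 uM) for 90 min at 37 C, 5% CO2. Beta-Glo luminescence was read after 60 min at room temperature. Background-corrected duplicate means were fitted by four-parameter nonlinear regression to give IC50.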

[2] = test system: NCI-H524 (ATCC) human small cell lung cancer cells; assay type: cell-based; details: 2 h
Outline: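 NCI-H524 cells (5,000/well) were exposed 24 h after plating to SMDC for 2 h, 11-point two-fold series from 1 uM. After washout they grew a further 70 h. Proliferation was read by CellTiter-Glo luminescence, % inhibition taken vs untreated control, and IC50 fitted by four-parameter nonlinear regression.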

[3] = H524 tumor biodistribution model: tumor and plasma levels of SMDC and MMAE by LC/MS-MS; assay type: in vivo, female Athymic nude mice; details: H524 tumor bearing nude mice; for level at time molar at 4 h: 4 h after 500 nmol/kg IV; for level at time molar at 24 h: 24 h after 500 nmol/kg IV
Procedure: In this example, 5 million H524 (Small Cell Lung Cancer) cells in 1:1 Matrigel: cold Media (RPMI1640) were injected into the subcutaneous (SQ) flank of female Athymic nude mice. Tumor volumes and body weights were measured twice a week. The tumors were allowed to grow until they reached 250-500 mm^3 in size before animals were randomized into groups (n=3/time point). Animals were injected intravenously with a SMDC of the present invention at a single dose of 500 nmol/kg. […] BLQ: Below Limit of Quantitation.

[4] = MMAE level 4 h after 500 nmol/kg IV of the conjugate
[5] = MMAE level 24 h after 500 nmol/kg IV of the conjugate
[6] = MMAE level 72 h after 500 nmol/kg IV of the conjugate
[7] = MMAE level 168 h after 500 nmol/kg IV of the conjugate
[8] = MMAE level 240 h after 500 nmol/kg IV of the conjugate
[9] = female, Athymic nude, mouse, plasma, read-out: Conjugate Plasma
[10] = female, Athymic nude, mouse, read-out: Conjugate Tumor

SMILES: CC[C@H](C)[C@@H]([C@@H](CC(=O)N1CCC[C@H]1[C@H](OC)[C@@H](C)C(=O)N[C@H](C)[C@@H](O)c1ccccc1)OC)N(C)C(=O)[C@@H](NC(=O)[C@H](C(C)C)N(C)C(=O)OCc1ccc(NC(=O)[C@H](CCCNC(N)=O)NC(=O)[C@@H](NC(=O)[C@@H](CS(=O)(=O)O)NC(=O)CCOCCC(=O)NCCNc2ncc(-c3cc(C)cc(F)c3)c(N3CCC(N)CC3)c2-c2nc3ccc(Cl)cc3[nH]2)C(C)C)cc1C(=O)NCCN)C(C)C [Compound 107]
- EC50 [1]: 0.15 nM
- EC50 (SST2): 2.2 nM
- EC50 [2]: 4 nM
- Conjugate Plasma (nM) ([3]; 72 h after 500 nmol/kg IV): BLQ
- Conjugate Plasma (nM) ([3]; 168 h after 500 nmol/kg IV): BLQ
- Conjugate Tumor (nM) ([3]; 168 h after 500 nmol/kg IV): BLQ
- Conjugate Plasma (nM) ([3]; 240 h after 500 nmol/kg IV): BLQ
- Conjugate Tumor (nM) ([3]; 240 h after 500 nmol/kg IV): BLQ
- MMAE Plasma [3, 4]: 2.26 nM
- MMAE Tumor [3, 4]: 123 nM
- MMAE Plasma (nM) [3, 5]: BLQ
- MMAE Tumor [3, 5]: 242 nM
- MMAE Plasma (nM) [3, 6]: BLQ
- MMAE Tumor [3, 6]: 141 nM
- MMAE Plasma (nM) [3, 7]: BLQ
- MMAE Tumor [3, 7]: 90.1 nM
- MMAE Plasma (nM) [3, 8]: BLQ
- MMAE Tumor [3, 8]: 25.2 nM
- level at time molar at 4 h [3, 9]: 83.1 nM
- level at time molar at 24 h [3, 9]: 0.441 nM
- level at time molar at 4 h [3, 10]: 94.2 nM
- level at time molar at 24 h [3, 10]: 9.26 nM
- level at time molar at 72 h ([3]; female, Athymic nude, mouse, 72 h after 500 nmol/kg IV, read-out: Conjugate Tumor): 1.64 nM
